Test results reported in patent publication US20160053014A1 (SORRENTO THERAPEUTICS, published 2016).

T1: human CXCR5 (human, UniProt P32302 1-372)
T1 construct: whole, on cells; also called hu-CHO; CHO-CXCR5 cells
T1 sequence (looked up): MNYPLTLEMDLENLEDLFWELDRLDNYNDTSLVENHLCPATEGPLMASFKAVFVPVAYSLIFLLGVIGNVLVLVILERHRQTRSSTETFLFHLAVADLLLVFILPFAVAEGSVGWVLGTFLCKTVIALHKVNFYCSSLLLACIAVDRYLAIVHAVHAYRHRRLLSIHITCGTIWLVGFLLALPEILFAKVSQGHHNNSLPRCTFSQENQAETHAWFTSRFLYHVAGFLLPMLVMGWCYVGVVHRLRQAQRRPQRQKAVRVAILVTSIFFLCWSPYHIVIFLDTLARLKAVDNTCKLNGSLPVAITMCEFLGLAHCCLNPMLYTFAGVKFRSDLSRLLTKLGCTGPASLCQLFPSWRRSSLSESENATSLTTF

T2: murine CXCR5 (murine, UniProt Q04683 1-374)
T2 construct: whole, on cells; Endogenous receptor on mouse spleen cells cultured with LPS
T2 sequence (looked up): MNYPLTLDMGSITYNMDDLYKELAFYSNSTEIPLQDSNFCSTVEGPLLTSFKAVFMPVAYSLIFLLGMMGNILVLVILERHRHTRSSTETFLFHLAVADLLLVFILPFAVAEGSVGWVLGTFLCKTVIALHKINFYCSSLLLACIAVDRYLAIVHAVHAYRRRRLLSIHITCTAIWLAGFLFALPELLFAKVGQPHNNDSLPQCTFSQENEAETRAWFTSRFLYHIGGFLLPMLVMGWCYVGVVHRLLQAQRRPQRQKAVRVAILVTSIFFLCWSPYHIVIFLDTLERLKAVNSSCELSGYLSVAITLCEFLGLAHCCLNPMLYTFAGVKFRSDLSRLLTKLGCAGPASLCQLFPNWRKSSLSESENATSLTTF

B1: 11A7 (antibody, human IgG1, V domains shown)
VH: EVQLVESGGGLVQPGGSLRLSCAASGFTVSSNYMSWVRQAPGKGLEWVSVIYSGGSTYYADSVKGRFTISRHNSKNTLYLQMNSLRAEDTAVYYCARGYVVWGQGTLVTVSS
VL: QPVLTQPPSVSKDLRQTATLTCTGNSNNVGNQGATWLQQHQGHPPKLLSYKNNNRPSGISERFSASRSGNTASLTITGLQPEDEADYYCSAWDSSLSAWVFGGGTQLTVL
notes: 'Antibody 11A7 is a fully human IgG1'
B2: 12D3 (antibody, V domains shown)
VH: EVQLVESGGGLVKPGRSLRLSCAASGFTFSSYAMHWVRQAPGKGLEWVAVISYDGSNKYYADSVKGRFTISRDNSKNTLYLQMNSLRAEDTAVYYCARLRWLDYWGQGTLVTVSS
VL: QPVLTQPASVSGSPGQSIAISCTGTSSDVGSNNRVSWYQQHPGKAPKLMIYEVDKRPSGVSNRFSGSKSGNTASLTISGLQAEDEADYYCGTWDSSLSAYVFGTGTKLTVL
notes: tested as human IgG

What was measured:
[1] = target: T1, human CXCR5; assay: flow cytometry on CHO-CXCR5 cells, IgG titration
Excerpt: This example describes a cellular binding assay to determine the EC₅₀ for anti-CXCR5 antibodies binding to human CXCR5. […] In this example, CHO-CXCR5 cells were lifted from culture flasks using non-enzymatic Cell Dissociation Buffer—PBS based (Life Technologies #13151-014). Cells were resuspended in FACS Buffer (2% Fetal Bovine Serum in PBS) at 1×10⁶ cells/ml and […] were aliquoted into the wells of a 96-well plate. Plated cells were spun down and the supernatant discarded. Cells were resuspended in 30 μl FACS Buffer serially diluted concentrations of CXCR5 IgG in triplicate. Plates were incubated for 1 hr at 4° C. and then washed 2× with FACS Buffer. Cells were resuspended in 50 μl goat anti-human IgG (γ-chain specific)-PE conjugated secondary antibody (Southern Biotech #2040-09) diluted 1:500 in FACS Buffer. Cells were further incubated for 30 min at 4° C. and then washed 1× with FACS Buffer. The cells were resuspended in a final volume of 30 μl FACS Buffer and analyzed using the Intellicyt Flow Cytometer. Median fluorescence in the FL-2H channel was determined using FlowJo software and EC₅₀ value was determined by plotting the data in GraphPad Prism and analyzing using a variable slope non-linear regression.

[2] = target: T1, human CXCR5; assay: cell-based or functional assay
[3] = target: T1, human CXCR5; assay: cell-based or functional assay; remark: listed apart in the source
[4] = target: T2, murine CXCR5; assay: flow cytometry on LPS-cultured mouse spleen cells, IgG titration
Protocol: In this example, mouse spleen cells were harvested from either C57B1/6 or athymic nu/nu mice. Cells were cultured at 2×10⁶ per ml with LPS at 10 micrograms per ml in RPMI+10% FCS for up to 4 days at 37° C. in 5% CO2. Cells were harvested, washed and resuspended in FACS Buffer (2% Fetal Bovine Serum in PBS) at 1×10⁶ cells/ml and 50 μl (0.5×10⁵ cells) were aliquoted into the wells of a 96-well plate. Plated cells were spun down and the supernatant discarded. Cells were resuspended in 30 μl FACS Buffer containing serially diluted concentrations of CXCR5 IgG in triplicate. Plates were incubated for 1 hr at 4° C. and then washed 2x with FACS Buffer. Cells were resuspended in 50 μl goat anti-human IgG (γ-chain specific)-PE conjugated secondary antibody (Southern Biotech #2040-09) diluted 1:500 in FACS Buffer. Cells were further incubated for 30 min at 4° C. and then washed 1× with FACS Buffer. The cells were resuspended in a final volume of 30 μl FACS Buffer and analyzed using the Intellicyt Flow Cytometer. Median fluorescence in the FL-2H channel was determined using FlowJo software and EC₅₀ value was determined by plotting the data in GraphPad Prism and analyzing using a variable slope non-linear regression.

Row | Binder | EC50 [1] | IC50 [nM] of mAbs in calcium flux assay using CHO-CXCR5 cells (challenge with 9 nM CXCL13) [2] | IC50 [nM] of mAbs in chemotaxis assay using HS-Sultan cells (25 nM CXCL13) [3] | EC50 [4]
1 | B1 | 0.9 nM | 5 nM | 4.8 nM | 
2 | B2 | 1.3 nM |  |  | 27 nM
